From the supplement of paper PMC9112550, “Optimization of the antimicrobial peptide Bac7 by deep mutational scanning” (BMC Biology, 2022)

System: Escherichia coli TOP10
Test: shrunken log2 fold change of peptide-encoding DNA abundance (4.5 h post-induction vs induction); higher = less antimicrobial activity (less host growth inhibition)
Conditions: time post-induction: 4.5 h; library: site-saturation at positions 5, 18, 19, 20
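Also: peptides expressed intracellularly from a pBAD plasmid library in pooled LB shake-flask culture, induced with 0.3% L-arabinose, DNA abundance read by NGS, three biological replicates, DESeq2 with apeglm shrinkage.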

Sequence	shrunken log2 fold change
RRIRARPPRLPRPRPRPYSPPRP	-0.409
RRIRARPPRLPRPRPRPYSQPRP	-0.135
RRIRARPPRLPRPRPRPYVCPRP	-0.255
RRIRARPPRLPRPRPRPYWAPRP	-0.106
RRIRARPPRLPRPRPRPYYIPRP	-0.409
RRIRARPPRLPRPRPRPYYMPRP	-0.687
RRIRARPPRLPRPRPRPYYYPRP	-0.602
RRIRCRPPRLPRPRPRPAAFPRP	0.292
RRIRCRPPRLPRPRPRPAAGPRP	0.378
RRIRCRPPRLPRPRPRPACHPRP	-0.315
RRIRCRPPRLPRPRPRPACQPRP	0.305
RRIRCRPPRLPRPRPRPACRPRP	0.128
RRIRCRPPRLPRPRPRPACSPRP	-0.0823
RRIRCRPPRLPRPRPRPAEFPRP	-0.0616
RRIRCRPPRLPRPRPRPAEYPRP	-0.335
RRIRCRPPRLPRPRPRPAFPPRP	0.16
RRIRCRPPRLPRPRPRPAFRPRP	0.25
RRIRCRPPRLPRPRPRPAHAPRP	0.373
RRIRCRPPRLPRPRPRPAIWPRP	0.346
RRIRCRPPRLPRPRPRPAKEPRP	-0.0092

Sequence	shrunken log2 fold change
RRIRCRPPRLPRPRPRPALRPRP	0.457
RRIRCRPPRLPRPRPRPAMPPRP	-0.054
RRIRCRPPRLPRPRPRPANCPRP	-0.364
RRIRCRPPRLPRPRPRPAQSPRP	0.345
RRIRCRPPRLPRPRPRPAQYPRP	-0.467
RRIRCRPPRLPRPRPRPAREPRP	0.0467
RRIRCRPPRLPRPRPRPARFPRP	0.558
RRIRCRPPRLPRPRPRPASEPRP	0.49
RRIRCRPPRLPRPRPRPATDPRP	-0.112
RRIRCRPPRLPRPRPRPATLPRP	-0.154
RRIRCRPPRLPRPRPRPATTPRP	0.151
RRIRCRPPRLPRPRPRPAVTPRP	0.0305
RRIRCRPPRLPRPRPRPAWSPRP	0.15
RRIRCRPPRLPRPRPRPAWVPRP	0.316
RRIRCRPPRLPRPRPRPCEAPRP	-0.369
RRIRCRPPRLPRPRPRPCENPRP	0.0291
RRIRCRPPRLPRPRPRPCGDPRP	0.0996
RRIRCRPPRLPRPRPRPCGKPRP	-0.0972
RRIRCRPPRLPRPRPRPCGWPRP	0.456
RRIRCRPPRLPRPRPRPCGYPRP	-0.144

Sequence	shrunken log2 fold change
RRIRCRPPRLPRPRPRPCHYPRP	-0.403
RRIRCRPPRLPRPRPRPCKGPRP	0.035
RRIRCRPPRLPRPRPRPCKHPRP	-0.339
RRIRCRPPRLPRPRPRPCKMPRP	5.36
RRIRCRPPRLPRPRPRPCKYPRP	-0.227
RRIRCRPPRLPRPRPRPCLQPRP	-0.129
RRIRCRPPRLPRPRPRPCNLPRP	-0.0646
RRIRCRPPRLPRPRPRPCRLPRP	-0.3
RRIRCRPPRLPRPRPRPCRRPRP	0.0819
RRIRCRPPRLPRPRPRPCSFPRP	-0.57
RRIRCRPPRLPRPRPRPCSGPRP	-0.513
RRIRCRPPRLPRPRPRPCSNPRP	-0.274
RRIRCRPPRLPRPRPRPCVHPRP	-0.0561
RRIRCRPPRLPRPRPRPCVKPRP	-0.439
RRIRCRPPRLPRPRPRPCWGPRP	-0.195
RRIRCRPPRLPRPRPRPDAFPRP	0.467
RRIRCRPPRLPRPRPRPDCNPRP	-0.219
RRIRCRPPRLPRPRPRPDDHPRP	-0.338
RRIRCRPPRLPRPRPRPDDRPRP	-0.0204
RRIRCRPPRLPRPRPRPDEGPRP	-0.00232
